Results reported in publication PMC8427755.

Experiments:
[1] = molecular target: FcγRI on transfected Jurkat cells (human) (UniProt P12314)
[2] = molecular target: FcγRIIa-H131 on transfected cells (human) (UniProt P12318); test: flow cytometry on cells; competitive binding on cells transfected with FcγRIIa-H131, FcγRIIa-R131, FcγRIIb or FcγRI; Alexa-labelled rituximab (30 ug/mL) with the tested molecule, PBS pH 7.4; mean of 2 experiments
[3] = molecular target: FcγRIIb on transfected HEK cells (human) (UniProt P31994); test: as above
[4] = molecular target: FcγRI on transfected Jurkat cells (human) (UniProt P12314); test: as above
[5] = molecular target: FcγRIIa-R131 on transfected HEK cells (human); test: as above
[6] = molecular target: His-tagged hFcγRIIIa (Sinobiological) (human) (UniProt P08637); test: SPR; Biacore T200, CM5 chip with anti-His capture; His-tagged hFcγRIIIa or mFcγRIV captured; 15 mM Tris-HCl, 150 mM NaCl, 0.005% Tween 20, pH 7.4, 25°C; single cycle (hFcγRIIIa) or multi cycle (mFcγRIV) kinetics; 1:1 Langmuir model, two state reaction model for LFBD192 on hFcγRIIIa
[7] = molecular target: His-tagged mFcγRIV (R&D Systems) (mouse); test: as above
[8] = molecular target: human FcRn expressed at the surface of Jurkat cells (human) (UniProt P55899); test: flow cytometry on cells; competitive binding on FcRn-transfected Jurkat cells; Alexa-labelled rituximab (30 ug/mL) with the tested molecule, PBS pH 6.0; mean of 2 experiments
[9] = molecular target: FcγRIIIa-F158 on transfected Jurkat cells (human) (UniProt P08637); test: flow cytometry on cells; competitive binding on FcγRIIIa-F158-transfected Jurkat cells; FITC-conjugated anti-FcγRIIIa 3G8 (0.5 ug/mL) with 17-2168 nM of the tested molecule, 20 min, 4°C, PBS pH 7.4; mean of 2 experiments
[10] = molecular target: biotinylated human FcRn (Acrobiosystem) (human) (UniProt P55899); test: SPR; Biacore T200, sensor chip CAP; biotinylated human or mouse FcRn captured; samples injected in single cycle kinetic mode, 25°C; 20 mM sodium phosphate, 150 mM NaCl, 0.05% Tween 20, pH 6.0; 1:1 Langmuir model, steady state model for IVIg on hFcRn
[11] = molecular target: biotinylated mouse FcRn (Acrobiosystem) (mouse | not stated) (UniProt Q61559); test: as above
[12] = molecular target: Recombinant human FcγRIIIa V/CD16aV (human); test: BLI; Octet RED96; His-tagged hFcγRIIIa V fixed on anti-penta-His (HIS-1K) biosensors; Fc samples 1,000-15.625 nM in kinetic buffer, pH 7.4; 1/1 model; means of 3 experiments
[13] = molecular target: recombinant human FcRn receptor (FcRn alpha-chain and beta2-microglobulin heterodimer), biotinylated (human) (UniProt P55899); test: BLI; Octet RED96; biotinylated hFcRn fixed on streptavidin biosensors; Fc samples 200-3.125 nM; 0.1 M phosphate, 150 mM NaCl, 0.05% Tween 20, pH 6.0; 1/1 model; means of 3 experiments

Sequence of UniProt P12314 (P12314 16-374): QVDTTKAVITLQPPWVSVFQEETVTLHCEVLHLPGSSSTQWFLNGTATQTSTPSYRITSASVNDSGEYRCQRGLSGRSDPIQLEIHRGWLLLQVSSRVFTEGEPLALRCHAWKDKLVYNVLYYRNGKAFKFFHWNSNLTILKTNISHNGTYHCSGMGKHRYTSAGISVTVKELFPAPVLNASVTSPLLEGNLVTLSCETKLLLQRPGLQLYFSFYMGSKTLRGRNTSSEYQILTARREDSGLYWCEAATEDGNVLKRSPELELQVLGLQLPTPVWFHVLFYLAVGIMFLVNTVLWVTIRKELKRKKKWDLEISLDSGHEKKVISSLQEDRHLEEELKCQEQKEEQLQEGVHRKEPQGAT
Sequence of UniProt P08637 (P08637 17-254): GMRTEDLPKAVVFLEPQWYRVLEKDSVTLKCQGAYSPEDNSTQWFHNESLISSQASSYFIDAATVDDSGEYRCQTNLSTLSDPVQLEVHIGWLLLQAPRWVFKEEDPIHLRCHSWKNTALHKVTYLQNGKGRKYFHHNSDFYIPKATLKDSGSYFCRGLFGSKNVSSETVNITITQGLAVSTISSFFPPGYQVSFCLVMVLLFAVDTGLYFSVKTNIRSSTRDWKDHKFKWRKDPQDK
Sequence of UniProt P31994 (P31994 43-310): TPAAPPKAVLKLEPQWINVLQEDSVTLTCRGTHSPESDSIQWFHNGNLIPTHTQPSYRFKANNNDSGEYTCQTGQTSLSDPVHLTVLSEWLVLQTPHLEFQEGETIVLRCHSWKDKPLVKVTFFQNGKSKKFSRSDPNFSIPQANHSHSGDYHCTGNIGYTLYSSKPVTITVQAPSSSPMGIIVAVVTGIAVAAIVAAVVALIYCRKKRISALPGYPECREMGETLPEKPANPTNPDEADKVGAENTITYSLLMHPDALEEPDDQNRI
Sequence of UniProt P12318 (P12318 34-317): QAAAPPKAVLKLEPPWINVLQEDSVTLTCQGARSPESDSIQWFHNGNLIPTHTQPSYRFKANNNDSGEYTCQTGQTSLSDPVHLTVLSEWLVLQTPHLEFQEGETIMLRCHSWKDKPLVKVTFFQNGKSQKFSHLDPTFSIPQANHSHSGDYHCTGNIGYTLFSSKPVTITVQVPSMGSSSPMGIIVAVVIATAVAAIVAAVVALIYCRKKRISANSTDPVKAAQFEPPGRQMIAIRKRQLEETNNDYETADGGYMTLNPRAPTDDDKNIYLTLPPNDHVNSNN

IC50 of inhibition of IL-2 secretion by FcγRI-transfected Jurkat cells co-cultured with Raji cells coated with rituximab [1]	inhibitory concentration at 25% of IL-2 secretion by FcγRI-transfected Jurkat cells co-cultured with Raji cells coated with rituximab [1]	IC50 [2]	IC50 [3]	IC50 [4]	IC50 [5]	Kd [6]	Kd [7]	IC50 [8]	IC50 [9]	Kd [10]	Kd [11]	Kd [12]	Kd [13]	Substance
> 1950 nM	1110 nM	671 nM	761 nM	880 nM	1310 nM	40 nM	554 nM	1360 nM	1680 nM	469 nM	17.1 nM			intravenous immunoglobulin (IVIg)
												504 nM	36.5 nM	rFc-WT (non-mutated Fc fragment of human IgG1) (domain or fragment)
